According to US20140363422A1 (IMMUNOQURE, published 2014):
Read-outs that look alike come from different tables or passages of the source.

Assays:
[1] = target: T1, IL-17A/IL-17F heterodimer (UniProt Q16552 24-155; Q96PD4 31-163); test: cell-based or functional assay
T1 sequence (looked up) 1: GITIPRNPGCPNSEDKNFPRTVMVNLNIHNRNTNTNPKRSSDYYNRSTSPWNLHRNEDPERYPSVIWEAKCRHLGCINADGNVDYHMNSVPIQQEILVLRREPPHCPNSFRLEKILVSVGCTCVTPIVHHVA
T1 sequence (looked up) 2: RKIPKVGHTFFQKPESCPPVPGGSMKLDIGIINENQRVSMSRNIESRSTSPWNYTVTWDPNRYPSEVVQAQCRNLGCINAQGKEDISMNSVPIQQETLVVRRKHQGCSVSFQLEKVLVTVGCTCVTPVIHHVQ

human IL-17F [2] = target: T2, human IL-17F (human, UniProt Q96PD4 31-163); test: cell-based or functional assay
T2 sequence (looked up): T1 sequence (looked up) 2

human IL-17F [3] = target: T2, human IL-17F; test: EC50 in summary table; assay not named, taken as binding ELISA
human IL-17F [4] = target: T2, human IL-17F; test: SPR (ProteOn XPR36), antibody captured by anti-human IgG, IL-17F injected
human IL-22 [5] = target: T3, human IL-22 (human, UniProt Q9GZX6 34-179); test: SPR (ProteOn XPR36), antibody captured by anti-human IgG (L1), IL-22 injected at 100 to 1.23 nM and buffer
T3 construct: also called IL-22(h); interleukin-22
T3 sequence (looked up): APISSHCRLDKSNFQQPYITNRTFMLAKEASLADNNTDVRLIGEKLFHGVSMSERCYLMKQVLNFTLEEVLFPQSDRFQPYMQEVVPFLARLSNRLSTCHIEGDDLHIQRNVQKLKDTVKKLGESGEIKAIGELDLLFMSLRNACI

human IL-17A = target: T4, human IL-17A (human, UniProt Q16552 24-155); test: EC50 in summary table; assay not named, taken as binding ELISA; IL-17A (A)
T4 construct: Bought recombinant protein; also called CTLA-8
T4 sequence (looked up): T1 sequence (looked up) 1

human IL-17F [6] = target: T2, human IL-17F; test: EC50 in summary table; assay not named, taken as binding ELISA; IL-17F (F)
human IL-22 [7] = target: T3, human IL-22; test: SPR (ProteOn XPR36), antibody captured by anti-human IgG (L3), IL-22 injected at 100 to 1.23 nM and buffer
human IL-17F [8] = target: T2, human IL-17F; test: ELISA, titration of antibody 9A2 on recombinant human IL17F
human IL-22 [9] = target: T3, human IL-22; test: SPR (ProteOn XPR36), antibody captured by anti-human IgG (L2), IL-22 injected at 100 to 1.23 nM and buffer
human IL-22 [10] = target: T3, human IL-22; test: EC50 in summary table; assay not named, taken as binding ELISA; human IL-22 (h)
mouse IL-22 = target: T5, mouse IL-22 (mouse, UniProt Q9JJY9 34-179); test: EC50 in summary table; assay not named, taken as binding ELISA; murine IL-22 (m)
T5 construct: also called murine IL-22; IL-22(m)
T5 sequence (looked up): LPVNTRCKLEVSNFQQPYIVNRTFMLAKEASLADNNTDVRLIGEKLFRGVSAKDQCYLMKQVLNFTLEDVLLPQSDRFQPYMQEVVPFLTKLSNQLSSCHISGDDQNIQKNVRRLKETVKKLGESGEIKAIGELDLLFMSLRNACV

human IL-22 [11] = target: T3, human IL-22; test: SPR (ProteOn XPR36), antibody captured by anti-human IgG, IL-22 injected at 100 to 1.23 nM, 1:1 Langmuir fit, grouped
Method: (§1) Data was referenced using the interspot regions of the sensor chip.
(§2) For affinity determination of the antibodies of the present invention SPR measurements were performed using a ProteOn™ XPR36 instrument, according to the instructions of the manufacturer (BIO-RAD; Hercules Calif., USA). First, anti-human IgG was coupled simultaneously on 5 surfaces of the 6×6 interaction array of a GLC sensor chip by EDC/NHS chemistry, no antibody was sixth immobilized on the sixth surface, but the surface was treated with the same activation and deactivation protocol as the other five surfaces. The MABs (ligands) to be tested were injected afterwards into 6 channels of the chip (in the vertical direction) and simultaneously captured at very similar capture efficiency and percentage activity. […] Data was referenced using the interspot regions between the flow channels. […] Binding experiments were repeated twice and data is represented as a mean of two independent experiments.

human IL-22 [12] = target: T3, human IL-22; test: SPR (ProteOn XPR36), antibody captured by anti-human IgG, IL-22 injected at 100 to 1.23 nM, 1:1 Langmuir fit, mean of two experiments
Method: as §1, §2

human IL-22 [13] = target: T3, human IL-22; test: EC50 in summary table; assay not named, taken as binding ELISA
human IL-22 [14] = target: T3, human IL-22; test: SPR (ProteOn XPR36), antibody captured by anti-human IgG, IL-22 injected at 100 to 1.23 nM, 1:1 Langmuir fit, grouped; remark: listed apart in the source
Method: as §1, §2

human IL-22 [15] = target: T3, human IL-22; test: cell-based or functional assay

B1: IL-17F specific antibody 24D3 (antibody, human IgG1, lambda, V domains shown)
VH: EVKLEESGGDLVKPGGSLRLSCVASGFTFGTAWMSWVRQAPGKGLEWVGRISNKDTGGRIDYAAPVRGRFAISRDDSKATLFLQMNSLKTEDTAVYFCTTNFYDVLTGDHVDYWGQGTVVVVSS
VL: SYELTQPPSVSVSPGETARIPCSGETLPKKLVYWYQQKPGQAPVLMIYKDSERPSRISERFSGSNSGTMASLTISGVQAEDEADYYCQTSDSSGVVFGGGTKLTVLG
notes: also called a-IL17-24D3; aIL-17 24D3
- IC50 Neutralization (ng/ml); GRO-alpha production by NCTC 2544 keratinocytes [1]: 6 to 14 ng/mL
- IC50 Neutralization (ng/ml); GRO-alpha production by NCTC 2544 keratinocytes (human IL-17F [2]): 12 to 22 ng/mL
- EC50 (human IL-17F [3]): 0.002 µg/mL
- kon (human IL-17F [4]): ~600000 M⁻¹ s⁻¹
- binding result (human IL-22 [5]): no binding (tested: 100 nM)

B2: IL-17F and IL-17A specific antibody 17E3 (antibody, human IgG1, kappa, V domains shown)
VH: QVQLVQSGAEVAKPGASVRLSCKASGFSFIKYYMHWVRQAPGQGLEWMGVIEPTGGGTSSAQKFRDRVTLSRDTSTATVHLEVSRLTLEDTGIYFCVRDSIYCKHGTCHRTVIDAFDIWGQGTAVTVSS
VL: DIQMTQSPSSLSASVGDRVTITCRSSQDIKNDLAWYQQKPGKAPERLIYAASNLQSGVPSRFSGSGSGTEFSLTISGLQPEDFATYYCLQHNSYPLLTFGGGTKVEIKR
notes: also called a-IL17-17E3
- IC50 Neutralization (ng/ml); GRO-alpha production by NCTC 2544 keratinocytes [1]: 12 ng/mL
- IC50 Neutralization (ng/ml); GRO-alpha production by NCTC 2544 keratinocytes (human IL-17F [2]): 15 ng/mL
- kon (human IL-17F [4]): ~300000 M⁻¹ s⁻¹
- EC50 (human IL-17A): 0.824 µg/mL
- EC50 (human IL-17F [6]): 0.002 µg/mL
- binding result (human IL-22 [7]): no binding (tested: 100 nM)

B3: IL-17F specific antibody 9A2 (antibody, human IgG1, kappa, V domains shown)
VH: EVQLEESGGGLVQPGGSLRLSCAASGFPFSNYEMNWVRQAPGKGLEWISYISVSGGPAHYADSVKGRFTISRDDATKSLFLQMNRLRADDTAVYYCVRREYVTGRNYNYYPYMDVWGTGTTVTVSP
VL: DIQMTQSPSSLSASVGDRVTITCRASQTISDYLNWYQHKPGEAPKLLIYSASTLQRGVPSRFSGSGSGTDFVFTISSLQSDDFATYYCQQTSSTALTFGGGTKVEVKR
notes: also called a-IL17-9A2
- IC50 Neutralization (ng/ml); GRO-alpha production by NCTC 2544 keratinocytes (human IL-17F [2]): 45 ng/mL
- EC50 (human IL-17F [3]): 0.003 µg/mL
- EC50 (read off the curve) (human IL-17F [8]): ~0.02 µg/mL
- kon (human IL-17F [4]): ~800000 M⁻¹ s⁻¹
- binding result (human IL-22 [9]): no binding (tested: 100 nM)

B4: IL-22 specific antibody 30G1 (antibody, human IgG1, kappa, V domains shown)
VH: EVQLLESGGGLVQPGGSLRLSCAASGFTFSTYAMSWVRQAPGKGLEWVSTITSSGGATYHADSVKGRLTISRDNSKNTLYLEMNSLRVEDTAVYYCAKDWGRTVYAVIKDLDIWGQGTLVTVSS
VL: EIVMTQSPAILSVSPGERATLSCRASQSVSNYLAWFQQKPGQAPRLLIYDTSKRATGTPARFSGSGSGTDFTLTISSLEPEDFAVYFCQQRSDWPQYTFGQGTKLEIKR
notes: also called aIL-22 30G1
- binding result (human IL-17F [4]): no binding (tested: 100 nM to 1.23 nM)
- EC50 (human IL-22 [10]): 0.003 µg/mL
- EC50 (mouse IL-22): 0.015 µg/mL
- Kd (human IL-22 [11]): 0.0352 nM
- koff (human IL-22 [11]): 1.55e-05 s⁻¹
- kon (human IL-22 [11]): 441000 M⁻¹ s⁻¹
- Kd (human IL-22 [12]): 0.0365 nM

B5: IL-22 specific antibody 35G11 (antibody, human IgG4, lambda, V domains shown)
VH: QVQLVQSGSELRRPGASVNISCKASGYGFNTYAMNWVRQAPGQGPEWMGWINTDTGDPTYAQGFTGRFAFFLDTSASTAFLQITRLTGEDTAVYFCARTRNNWNGVYYHYSGLDVWGQGTTVTVSS
VL: QSVLTQPPSASGTPGQTVTISCSGSSPNLGDNYVYWYHQVPGTAPKLLIFRNTQRPSGVTDRFSGSKYGTSASLAISDLRSDDEGDFYCASWDDRLSRLVFGGGTKLTVLG
notes: also called a-IL-22-35G11; aIL-22 35G11
- EC50 (human IL-22 [13]): 0.007 µg/mL
- binding result (human IL-17F [4]): no binding (tested: 100 nM to 1.23 nM)
- Kd (human IL-22 [14]): 0.0457 nM
- koff (human IL-22 [14]): 8.09e-05 s⁻¹
- kon (human IL-22 [14]): 1.77e+06 M⁻¹ s⁻¹
- Kd (human IL-22 [12]): 0.039 nM

B6: IL-22 specific antibody 51G4 (antibody, human IgG2, lambda, V domains shown)
VH: EVQLVQSGAEVKKPGASVKVSCKTSGYKFALYDIHWVRQAPGQGLEWMGWINAANGDTEYSQKFEGRVTITRDTSATTVYMELNSLTYGDTAVYYCAREEGLYNWFDPWGQGTLVTVSS
VL: SYELTQDPAVSVALGQTVRITCQGDSLRIYYANWYQQKPGQAPVLVIYGKSNRPSGIPDRFSASSSGNTASLTITGAQAEDEADYYCNSRDSSDKHPVPFGGGTKLTVLS
notes: also called a-IL-22-51G4
- EC50 (human IL-22 [13]): 0.067 to 0.148 µg/mL

B7: IL-22 specific antibody 41D11 (antibody, human IgG1, lambda, V domains shown)
VH: QVQLHESGPGLVKPSETLSVTCSLSGGSISSSSHLWAWIRQPPEKGLEYIGRIHYRGSVSYNPSLKSRAAISVDTAKNQFSLTLSAVTAADTSFYYCARLDMGAIDKWGQGTLVIVSS
V domain: QPVLTQSPSASASLGASIKLTCTLSSGHSNYDIAWHQQQSGKGPRFLMRVNNGGSHNKGDGIPDRFSGSSSGAERYLTISSLQSEDEADYYCQTWGTGTHVFGTG
notes: also called a-IL-22-41D11
- IC50 Neutralization (ng/ml); IL-10 production by Colo205 cells (human IL-22 [15]): 38 ng/mL
- EC50 (human IL-22 [10]): 0.005 µg/mL
- EC50 (mouse IL-22): 0.06 µg/mL
